{"source": "paper doi:10.1101/2020.07.20.212654", "about": "(bioRxiv, 2020)", "molecules": {"B1": {"name": "NK1 (domain or fragment, human, UniProt P14210 28-209, looked up)", "chain": "YAEGQRKRRNTIHEFKKSAKTTLIKIDPALKIKTKKVNTADQCANRCTRNKGLPFTCKAFVFDKARKQCLWFPFNSMSSGVKKEFGHEFDLYENKDYIRNCIIGKGRSYKGTVSITKSGIKCQPWSSMIPHEHSFLPSSYRGKDLQENYCRNPRGEEGGPWCFTSNPEVRYEVCDIPQCSEV"}}, "key": {"MET567 [1]": {"target": "T1, MET567 (human, UniProt P08581 25-567)", "T1 sequence (P08581 25-567)": "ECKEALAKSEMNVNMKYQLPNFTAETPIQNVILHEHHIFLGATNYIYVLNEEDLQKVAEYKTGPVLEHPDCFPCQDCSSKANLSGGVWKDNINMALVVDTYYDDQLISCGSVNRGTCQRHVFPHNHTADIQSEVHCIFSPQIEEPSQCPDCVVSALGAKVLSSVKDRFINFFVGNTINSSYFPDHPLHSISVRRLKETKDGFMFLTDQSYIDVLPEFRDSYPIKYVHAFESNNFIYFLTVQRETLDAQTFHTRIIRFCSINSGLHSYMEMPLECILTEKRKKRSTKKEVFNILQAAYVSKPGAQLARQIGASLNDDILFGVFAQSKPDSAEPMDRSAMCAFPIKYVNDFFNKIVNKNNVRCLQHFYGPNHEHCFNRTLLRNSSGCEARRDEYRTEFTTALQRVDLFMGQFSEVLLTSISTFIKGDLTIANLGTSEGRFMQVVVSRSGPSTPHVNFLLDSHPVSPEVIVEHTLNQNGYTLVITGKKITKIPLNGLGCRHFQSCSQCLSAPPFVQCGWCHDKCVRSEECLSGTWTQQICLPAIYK", "test": "SPR"}, "MET567 [2]": {"target": "T1, MET567", "test": "SEC-SAXS"}}}
{"molecule": "K1K1 (from UniProt P14210 128-206) (ligand)", "values": [{"measurement": "Kd", "setting": "MET567 [1]", "result": 205, "unit": "nM"}, {"measurement": "stoichiometry N", "setting": "MET567 [2]", "result": "1 K1K1:MET567"}]}
{"molecule": "B1", "values": [{"measurement": "Kd", "setting": "MET567 [1]", "result": 200, "unit": "nM"}]}
